{"source": "paper PMC5278397", "molecular_target": "gp130 extracellular domain (UniProt P40189)", "sequence (P40189 23-619)": "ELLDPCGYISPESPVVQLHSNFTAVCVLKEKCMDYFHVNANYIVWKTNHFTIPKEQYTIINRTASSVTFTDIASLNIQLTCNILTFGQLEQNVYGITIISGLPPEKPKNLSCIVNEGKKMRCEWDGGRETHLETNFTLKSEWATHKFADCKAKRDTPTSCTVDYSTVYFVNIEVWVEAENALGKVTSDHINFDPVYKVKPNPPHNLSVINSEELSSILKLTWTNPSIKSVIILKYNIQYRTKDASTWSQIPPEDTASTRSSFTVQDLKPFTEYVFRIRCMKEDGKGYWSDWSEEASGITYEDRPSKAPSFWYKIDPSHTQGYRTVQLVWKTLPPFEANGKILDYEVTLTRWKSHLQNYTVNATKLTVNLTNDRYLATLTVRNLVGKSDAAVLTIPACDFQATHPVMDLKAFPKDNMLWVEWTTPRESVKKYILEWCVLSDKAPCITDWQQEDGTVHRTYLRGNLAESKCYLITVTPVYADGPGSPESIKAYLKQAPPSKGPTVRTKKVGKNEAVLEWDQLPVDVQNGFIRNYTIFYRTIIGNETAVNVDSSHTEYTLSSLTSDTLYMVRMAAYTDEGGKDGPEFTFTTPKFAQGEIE", "assay": "SPR; gp130 extracellular domain amine-coupled on CM5; fixed excess of IL-6 and differing concentrations of gp80 (0–250 nM) with or without VHH6; 100 μl/min; 1:1 binding model; 25 °C, HBS-P+; BIAcore T200"}
{"substance": "IL-6–gp80 complex (IL-6 with gp80V4) (from UniProt P05231 49-212; P08887 111-322)", "values": [{"measurement": "koff", "value": 0.037, "unit": "s⁻¹"}, {"measurement": "kon", "value": 360000, "unit": "M⁻¹ s⁻¹"}]}
